Results published in patent publication US20240409614A1 (DANMARKS TEKNISKE UNIVERSITET, published 2024).
Changes are numbered by the printed parent chain. Names may count otherwise.

Molecular target: elastase (EnzChek Elastase Assay kit, Invitrogen)
Assay: cell-based or functional assay

B1: A1AT-M351V/L353A/M358V (other)
chain: EDPQGDAAQKTDTSHHDQDHPTFNKITPNLAEFAFSLYRQLAHQSNSTNIFFSPVSIATAFAMLSLGTKADTHDEILEGLNFNLTEIPEAQIHEGFQELLRTLNQPDSQLQLTTGNGLFLSEGLKLVDKFLEDVKKLYHSEAFTVNFGDTEEAKKQINDYVEKGTQGKIVDLVKELDRDTVFALVNYIFFKGKWERPFEVKDTEEEDFHVDQVTTVKVPMMKRLGMFNIQHCKKLSSWVLLMKYLGNATAIFFLPDEGKLQHLENELTHDIITKFLENEDRRSASLHLPKLSITGTYDLKSVLGQLGITKVFSNGADLSGVTEEAPLKLSKAVHKAVLTIDEKGTEAAGAVFAEAIPVSIPPEVKFNKPFVFLMIEQNTKSPLFMGKVVNPTQK
B1 was tested, and the “IC50 (anti-elastase activity), first determination” value (“IC50 … first determination” below) was 74.6 nM and the “IC50 (anti-elastase activity), second determination” value (from here on “IC50 … second determination”) was 78.2 nM.

B2: A1AT-M351V/L353S/M358V (other)
chain: B1 chain with A353S
B2 was tested, and the “IC50 … first determination” value was 86.9 nM and the “IC50 … second determination” value was 108 nM.

B3: A1AT-M351V/L353T/M358V (other)
chain: B1 chain with A353T
In the case of B3, the “IC50 … first determination” value is reported as 98.9 nM and the “IC50 … second determination” value is reported as 115 nM.
